According to patent US20250262210A1 (TRUSTEES OF COLUMBIA UNIVERSITY IN THE CITY OF NEW YORK, published 2025):

Tests used:
Test in all cases: IP/MS, LZTR1 R810W-FLAG, U87
HTT = HTT (human, UniProt P42858 1-3142)
How it was run: (§1)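 Extracted peptides in 3% acetonitrile/0.1% formic acid ran on a 50 cm C18 column into an Orbitrap Fusion, with MaxQuant identification and spectral counting.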

PAPPA = PAPPA (human, UniProt Q13219 82-1627)
How it was run: as §1

HELZ = HELZ (human, UniProt P42694 1-1942, limits assumed)
How it was run: as §1

RAPH1 = biological target: T1, RAPH1 (human, UniProt Q70E73 1-1250, limits assumed)
T1 sequence (looked up): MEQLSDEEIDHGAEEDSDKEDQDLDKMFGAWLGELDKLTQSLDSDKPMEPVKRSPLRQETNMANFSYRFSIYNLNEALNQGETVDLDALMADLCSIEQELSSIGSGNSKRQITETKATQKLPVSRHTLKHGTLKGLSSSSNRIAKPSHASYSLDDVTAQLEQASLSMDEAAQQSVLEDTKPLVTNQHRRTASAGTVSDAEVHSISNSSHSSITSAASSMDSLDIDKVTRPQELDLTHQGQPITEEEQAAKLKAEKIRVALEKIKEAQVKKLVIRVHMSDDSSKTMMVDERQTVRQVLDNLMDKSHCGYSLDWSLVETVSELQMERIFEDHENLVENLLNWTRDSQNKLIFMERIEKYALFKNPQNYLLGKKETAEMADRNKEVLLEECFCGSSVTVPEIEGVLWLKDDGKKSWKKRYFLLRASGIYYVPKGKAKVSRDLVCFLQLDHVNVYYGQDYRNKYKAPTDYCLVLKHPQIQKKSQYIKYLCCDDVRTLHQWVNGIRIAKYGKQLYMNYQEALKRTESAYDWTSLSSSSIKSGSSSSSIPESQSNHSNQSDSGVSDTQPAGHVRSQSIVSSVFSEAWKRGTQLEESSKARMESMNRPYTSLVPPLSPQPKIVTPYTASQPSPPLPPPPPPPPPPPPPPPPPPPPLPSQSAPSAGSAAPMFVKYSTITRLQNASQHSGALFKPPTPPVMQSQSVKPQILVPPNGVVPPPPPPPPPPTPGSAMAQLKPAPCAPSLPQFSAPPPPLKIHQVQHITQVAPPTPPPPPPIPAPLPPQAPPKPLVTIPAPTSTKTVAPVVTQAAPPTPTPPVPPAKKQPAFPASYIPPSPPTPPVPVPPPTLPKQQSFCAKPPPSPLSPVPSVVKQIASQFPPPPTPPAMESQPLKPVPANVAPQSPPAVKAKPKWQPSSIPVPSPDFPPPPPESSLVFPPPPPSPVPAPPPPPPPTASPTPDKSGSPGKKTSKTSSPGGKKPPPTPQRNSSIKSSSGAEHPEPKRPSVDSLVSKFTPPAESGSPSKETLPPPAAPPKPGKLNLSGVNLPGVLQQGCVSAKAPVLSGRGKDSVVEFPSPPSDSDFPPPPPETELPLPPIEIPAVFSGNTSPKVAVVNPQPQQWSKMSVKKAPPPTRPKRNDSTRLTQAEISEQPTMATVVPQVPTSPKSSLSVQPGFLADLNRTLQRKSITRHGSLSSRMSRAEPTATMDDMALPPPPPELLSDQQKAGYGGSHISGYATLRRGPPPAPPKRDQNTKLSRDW
How it was run: as §1

KNL1 = KNL1 (human, UniProt Q8NG31 1-2342, limits assumed)
KNL1, sequence (Q8NG31 whole entry): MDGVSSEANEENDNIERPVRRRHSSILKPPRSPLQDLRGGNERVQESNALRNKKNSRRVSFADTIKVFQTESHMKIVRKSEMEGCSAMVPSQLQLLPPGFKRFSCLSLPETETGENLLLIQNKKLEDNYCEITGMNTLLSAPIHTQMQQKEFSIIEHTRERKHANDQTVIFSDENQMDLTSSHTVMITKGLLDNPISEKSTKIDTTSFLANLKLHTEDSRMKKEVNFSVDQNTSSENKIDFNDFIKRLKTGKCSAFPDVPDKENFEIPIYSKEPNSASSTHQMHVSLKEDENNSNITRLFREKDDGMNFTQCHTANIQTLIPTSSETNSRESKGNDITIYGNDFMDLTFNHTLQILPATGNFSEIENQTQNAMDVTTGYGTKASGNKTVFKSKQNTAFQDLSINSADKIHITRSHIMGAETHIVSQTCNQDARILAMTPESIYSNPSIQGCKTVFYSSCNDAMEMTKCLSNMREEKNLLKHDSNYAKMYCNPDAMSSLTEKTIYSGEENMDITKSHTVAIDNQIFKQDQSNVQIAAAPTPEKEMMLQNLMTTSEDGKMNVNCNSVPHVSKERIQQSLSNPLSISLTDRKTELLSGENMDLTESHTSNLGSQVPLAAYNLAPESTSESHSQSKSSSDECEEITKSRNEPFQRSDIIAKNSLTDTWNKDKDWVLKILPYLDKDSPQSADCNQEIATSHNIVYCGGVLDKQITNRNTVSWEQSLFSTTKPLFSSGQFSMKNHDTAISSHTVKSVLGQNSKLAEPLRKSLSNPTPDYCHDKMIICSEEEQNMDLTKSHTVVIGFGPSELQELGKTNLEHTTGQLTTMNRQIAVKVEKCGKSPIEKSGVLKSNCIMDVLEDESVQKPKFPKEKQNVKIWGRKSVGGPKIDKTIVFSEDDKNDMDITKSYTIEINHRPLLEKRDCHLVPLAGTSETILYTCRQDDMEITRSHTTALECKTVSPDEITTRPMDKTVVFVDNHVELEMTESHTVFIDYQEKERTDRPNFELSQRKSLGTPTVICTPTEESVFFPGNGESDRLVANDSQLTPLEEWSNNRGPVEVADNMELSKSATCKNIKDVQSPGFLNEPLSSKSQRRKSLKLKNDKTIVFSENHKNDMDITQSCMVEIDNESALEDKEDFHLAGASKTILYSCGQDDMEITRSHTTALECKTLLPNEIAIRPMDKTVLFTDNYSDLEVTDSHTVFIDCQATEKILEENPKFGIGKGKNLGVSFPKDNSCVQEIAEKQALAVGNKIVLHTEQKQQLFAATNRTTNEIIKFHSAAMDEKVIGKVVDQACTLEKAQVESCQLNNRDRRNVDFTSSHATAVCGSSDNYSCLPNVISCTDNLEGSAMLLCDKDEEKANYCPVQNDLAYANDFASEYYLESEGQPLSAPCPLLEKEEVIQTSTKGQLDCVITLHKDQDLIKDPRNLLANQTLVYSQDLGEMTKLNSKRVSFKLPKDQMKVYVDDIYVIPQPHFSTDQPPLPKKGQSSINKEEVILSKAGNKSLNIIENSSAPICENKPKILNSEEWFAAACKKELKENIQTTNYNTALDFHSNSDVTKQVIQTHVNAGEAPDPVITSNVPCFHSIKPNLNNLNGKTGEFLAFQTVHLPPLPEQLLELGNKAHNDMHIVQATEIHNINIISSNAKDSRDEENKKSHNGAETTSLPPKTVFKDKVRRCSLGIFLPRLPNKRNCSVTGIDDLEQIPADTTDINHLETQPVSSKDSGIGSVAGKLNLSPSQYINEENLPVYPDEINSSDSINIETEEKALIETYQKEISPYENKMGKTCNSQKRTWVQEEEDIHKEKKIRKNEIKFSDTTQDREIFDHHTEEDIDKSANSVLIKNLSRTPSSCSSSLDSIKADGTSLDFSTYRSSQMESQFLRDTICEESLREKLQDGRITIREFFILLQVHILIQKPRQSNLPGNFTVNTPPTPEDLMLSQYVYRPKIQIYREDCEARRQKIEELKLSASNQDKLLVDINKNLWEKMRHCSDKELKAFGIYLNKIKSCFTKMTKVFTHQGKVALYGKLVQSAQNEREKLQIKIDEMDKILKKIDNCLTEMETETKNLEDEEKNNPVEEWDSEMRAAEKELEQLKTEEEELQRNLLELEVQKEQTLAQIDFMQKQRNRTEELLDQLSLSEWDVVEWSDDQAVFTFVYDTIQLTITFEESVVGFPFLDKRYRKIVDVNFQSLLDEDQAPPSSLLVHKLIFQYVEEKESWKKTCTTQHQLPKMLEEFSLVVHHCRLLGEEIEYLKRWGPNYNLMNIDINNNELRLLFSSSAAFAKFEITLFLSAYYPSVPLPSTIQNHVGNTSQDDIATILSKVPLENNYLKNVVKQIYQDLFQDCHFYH
How it was run: as §1

SKIV2L = SKIV2L (human, UniProt Q15477 1-1246)
SKIV2L, sequence (Q15477 whole entry): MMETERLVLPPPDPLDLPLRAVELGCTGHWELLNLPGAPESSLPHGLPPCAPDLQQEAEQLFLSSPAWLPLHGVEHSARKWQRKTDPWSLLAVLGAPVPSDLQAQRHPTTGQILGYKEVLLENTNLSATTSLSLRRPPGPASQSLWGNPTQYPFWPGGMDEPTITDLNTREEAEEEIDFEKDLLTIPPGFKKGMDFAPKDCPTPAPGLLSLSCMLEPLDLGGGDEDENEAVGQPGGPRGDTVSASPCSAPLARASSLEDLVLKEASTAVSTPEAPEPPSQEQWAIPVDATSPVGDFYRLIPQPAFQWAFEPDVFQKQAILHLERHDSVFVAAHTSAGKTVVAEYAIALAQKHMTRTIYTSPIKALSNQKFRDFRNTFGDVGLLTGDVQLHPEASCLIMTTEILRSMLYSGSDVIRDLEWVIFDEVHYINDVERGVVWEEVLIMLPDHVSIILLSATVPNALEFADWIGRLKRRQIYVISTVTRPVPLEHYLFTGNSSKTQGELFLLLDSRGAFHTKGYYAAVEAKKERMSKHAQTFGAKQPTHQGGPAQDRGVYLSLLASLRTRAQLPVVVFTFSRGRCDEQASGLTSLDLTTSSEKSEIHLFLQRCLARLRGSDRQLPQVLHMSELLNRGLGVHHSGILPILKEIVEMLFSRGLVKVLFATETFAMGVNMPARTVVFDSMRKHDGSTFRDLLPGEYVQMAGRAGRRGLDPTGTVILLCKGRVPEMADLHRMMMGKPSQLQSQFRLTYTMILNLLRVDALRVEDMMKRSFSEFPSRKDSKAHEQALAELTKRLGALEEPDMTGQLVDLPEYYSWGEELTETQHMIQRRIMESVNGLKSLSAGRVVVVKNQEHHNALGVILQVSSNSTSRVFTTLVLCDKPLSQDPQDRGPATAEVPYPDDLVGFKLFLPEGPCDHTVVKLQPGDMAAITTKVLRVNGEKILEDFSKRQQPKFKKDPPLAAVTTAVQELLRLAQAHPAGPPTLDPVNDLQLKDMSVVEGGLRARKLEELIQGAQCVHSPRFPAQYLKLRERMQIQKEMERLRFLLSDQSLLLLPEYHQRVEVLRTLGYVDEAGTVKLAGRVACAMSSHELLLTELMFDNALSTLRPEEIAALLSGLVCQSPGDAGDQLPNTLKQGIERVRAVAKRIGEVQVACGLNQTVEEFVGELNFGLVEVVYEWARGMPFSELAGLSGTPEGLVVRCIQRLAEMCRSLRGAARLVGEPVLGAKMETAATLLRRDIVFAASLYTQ
How it was run: as §1

Measured: binding result

PAPPA, sequence (Q13219 82-1627 limits assumed): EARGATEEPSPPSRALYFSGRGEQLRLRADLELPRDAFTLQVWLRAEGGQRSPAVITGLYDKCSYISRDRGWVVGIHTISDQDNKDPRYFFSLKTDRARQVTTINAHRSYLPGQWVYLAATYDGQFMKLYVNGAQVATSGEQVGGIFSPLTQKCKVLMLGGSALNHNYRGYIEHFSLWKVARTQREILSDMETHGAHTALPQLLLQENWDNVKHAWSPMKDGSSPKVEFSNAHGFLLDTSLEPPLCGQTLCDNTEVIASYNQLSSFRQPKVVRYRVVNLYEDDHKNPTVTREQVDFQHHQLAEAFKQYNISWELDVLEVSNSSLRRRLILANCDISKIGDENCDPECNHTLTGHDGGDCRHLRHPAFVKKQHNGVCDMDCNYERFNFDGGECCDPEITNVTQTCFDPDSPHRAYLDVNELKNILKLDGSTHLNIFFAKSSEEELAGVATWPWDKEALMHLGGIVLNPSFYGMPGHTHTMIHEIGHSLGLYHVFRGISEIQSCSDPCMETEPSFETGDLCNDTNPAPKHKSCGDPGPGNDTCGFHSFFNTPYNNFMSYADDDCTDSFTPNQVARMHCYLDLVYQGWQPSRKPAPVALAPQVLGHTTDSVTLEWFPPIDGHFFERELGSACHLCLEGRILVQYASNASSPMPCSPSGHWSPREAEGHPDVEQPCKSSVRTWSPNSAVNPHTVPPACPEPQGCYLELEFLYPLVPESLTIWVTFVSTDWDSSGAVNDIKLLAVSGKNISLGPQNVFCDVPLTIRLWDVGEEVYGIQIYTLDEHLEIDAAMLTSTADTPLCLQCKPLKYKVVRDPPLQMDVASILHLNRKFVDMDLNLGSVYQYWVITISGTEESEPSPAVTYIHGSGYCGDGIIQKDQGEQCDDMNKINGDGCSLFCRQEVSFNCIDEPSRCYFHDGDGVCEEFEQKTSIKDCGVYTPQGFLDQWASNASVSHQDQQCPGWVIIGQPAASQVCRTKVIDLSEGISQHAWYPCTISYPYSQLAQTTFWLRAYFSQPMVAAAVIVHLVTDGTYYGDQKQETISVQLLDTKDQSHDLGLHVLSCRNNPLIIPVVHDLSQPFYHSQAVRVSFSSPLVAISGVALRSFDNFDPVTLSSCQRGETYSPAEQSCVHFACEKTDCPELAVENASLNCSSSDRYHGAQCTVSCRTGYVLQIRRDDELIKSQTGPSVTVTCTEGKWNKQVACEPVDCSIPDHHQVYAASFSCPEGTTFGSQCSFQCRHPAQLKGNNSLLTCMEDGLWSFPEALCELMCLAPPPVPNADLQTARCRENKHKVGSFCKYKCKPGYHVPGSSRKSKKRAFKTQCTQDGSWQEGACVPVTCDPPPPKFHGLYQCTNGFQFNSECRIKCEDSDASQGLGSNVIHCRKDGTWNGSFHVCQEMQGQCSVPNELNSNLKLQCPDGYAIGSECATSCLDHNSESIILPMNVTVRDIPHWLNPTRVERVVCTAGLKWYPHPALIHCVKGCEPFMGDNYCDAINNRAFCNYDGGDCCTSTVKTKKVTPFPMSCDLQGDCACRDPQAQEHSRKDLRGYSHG

B1: LZTR1 R810W-FLAG (other, human, UniProt Q8N653 1-840, looked up)
chain: MAGPGSTGGQIGAAALAGGARSKVAPSVDFDHSCSDSVEYLTLNFGPFETVHRWRRLPPCDEFVGARRSKHTVVAYKDAIYVFGGDNGKTMLNDLLRFDVKDCSWCRAFTTGTPPAPRYHHSAVVYGSSMFVFGGYTGDIYSNSNLKNKNDLFEYKFATGQWTEWKIEGRLPVARSAHGATVYSDKLWIFAGYDGNARLNDMWTIGLQDRELTCWEEVAQSGEIPPSCCNFPVAVCRDKMFVFSGQSGAKITNNLFQFEFKDKTWTRIPTEHLLRGSPPPPQRRYGHTMVAFDRHLYVFGGAADNTLPNELHCYDVDFQTWEVVQPSSDSEVGGAEVPERACASEEVPTLTYEERVGFKKSRDVFGLDFGTTSAKQPTQPASELPSGRLFHAAAVISDAMYIFGGTVDNNIRSGEMYRFQFSCYPKCTLHEDYGRLWESRQFCDVEFVLGEKEECVQGHVAIVTARSRWLRRKITQARERLAQKLEQEAAPVPREAPGVAAGGARPPLLHVAIREAEARPFEVLMQFLYTDKIKYPRKGHVEDVLLIMDVYKLALSFQLCRLEQLCRQYIEASVDLQNVLVVCESAARLQLSQLKEHCLNFVVKESHFNQVIMMKEFERLSSPLIVEIVRRKQQPPPRTPLDQPVDIGTSLIQDMKAYLEGAGAEFCDITLLLDGHPRPAHKAILAARSSYFEAMFRSFMPEDGQVNISIGEMVPSRQAFESMLRYIYYGEVNMPPEDSLYLFAAPYYYGFYNNRLQAYCKQNLEMNVTVQNVLQILEAADKTQALDMKRHCLHIIVHQFTKVSKLPTLWSLSQQLLLDIIDSLASHISDKQCAELGADI
notes: Stably expressed in U87 cells by lentivirus; also called LZTR1-FLAG-R810W; LZTR1 RW; not shown: FLAG tag
binds: all assays above
